*1 amine or outer side, *2 acyl side, *3 side chain or, on linkers, in order; H or OH if unused. Bridges are numbered along the chain shown (N, C = ends). Primed or numbered codes have the meaning given here. The star is where a group is joined. Biotin = O=C1N[C@H]2[C@H](CS[C@H]2CCCCC(=O)*)N1; Glutaryl = O=C(CCCC(=O)[*:2])[*:1]; HOOC(CH2)6CO = O=C(O)CCCCCCC(=O)*; PEG4′ = not defined here

The target of experiment [1] is human IgG (Chugai Pharmaceutical Co., Ltd.) (human). In words: SPR (BIAcore T200), IgG immobilised; 1:1 binding fit. A general note: Surface plasmon resonance follows binding to a sensor surface in real time, without labels.
Experiment [2] shares this target. In words: SPR (BIAcore T200), IgG immobilised; equilibrium value.
For experiment [3] the target is unchanged. In words: SPR (BIAcore T200), IgG immobilised.

The Kd is the concentration at which binding is half-saturated. As for {Biotin-PEG4′}-GPDCAYHRGELVWCTFH-NH2 (disulfide 4-14 (inferred)) [Type I IgG-binding peptide, …-NH2], the Kd in experiment [1] was determined as 9.1 nM; in experiment [2], 10 nM.

In experiment [3], {Biotin-PEG4′}-GDDCAYHKGELVWCTFH-NH2 (disulfide 4-14 (inferred)) [Type I(R8K) IgG-binding peptide, …-NH2] gave a fold decrease in affinity against Type I of 10 times. The Kd in experiment [1] was determined as 156 nM; in experiment [2], 131 nM.

Regarding {Biotin-PEG4′}-GDDCAYHK(Glutaryl)GELVWCTFH-NH2 (disulfide 4-14 (inferred)) [Type I(R8K)-DSG-OH, GDDCAYHK(DSG-OH)…-NH2], the Kd in experiment [1] was determined as 315 nM; in experiment [2], 330 nM.

For the molecule {Biotin-PEG4′}-GDDCAYHK(HOOC(CH2)6CO)GELVWCTFH-NH2 (disulfide 4-14 (inferred)) [Type I(R8K)-DSS-OH, GDDCAYHK(DSS-OH)…-NH2], the Kd in experiment [1] is 365 nM; in experiment [2], 389 nM.
